In patent US6294648A, “Protein having proteinase inhibitor activity” (Bayer Corporation, priority 1999, dated 2001):
Entries after “also recorded” stand apart in the source; their conditions may differ. Like-named read-outs stand apart in the source and are kept apart here.

How the values were obtained:
plasma kallikrein = plasma kallikrein (Homo sapiens, UniProt P03952); settings: cited from earlier work
[1] = test system: neutrophil-induced ECM solubilization; settings: cited from earlier work
cathepsin G = target: T1, cathepsin G (Homo sapiens, UniProt P08311); settings: cited from earlier work
T1 sequence (P08311 21-255): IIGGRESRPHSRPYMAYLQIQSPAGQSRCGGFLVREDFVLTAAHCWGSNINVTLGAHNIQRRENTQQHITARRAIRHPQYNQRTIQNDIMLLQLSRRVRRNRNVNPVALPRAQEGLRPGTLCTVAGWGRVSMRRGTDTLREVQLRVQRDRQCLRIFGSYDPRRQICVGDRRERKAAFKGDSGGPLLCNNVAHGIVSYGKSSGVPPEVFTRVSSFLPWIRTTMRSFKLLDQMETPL

proteinase 3 = target: T2, proteinase 3 (Homo sapiens, UniProt P24158); settings: cited from earlier work
T2 sequence (P24158 28-256): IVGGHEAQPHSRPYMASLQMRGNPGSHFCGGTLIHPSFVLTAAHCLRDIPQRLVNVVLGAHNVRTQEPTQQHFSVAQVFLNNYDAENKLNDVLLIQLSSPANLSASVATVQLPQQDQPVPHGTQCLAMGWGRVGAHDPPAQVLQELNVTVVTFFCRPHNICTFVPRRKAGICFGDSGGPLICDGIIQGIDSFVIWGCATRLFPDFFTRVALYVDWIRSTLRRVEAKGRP

Bovine chymotrypsin = target: T3, Bovine chymotrypsin (Bos taurus, UniProt P00766); assay: Chymotrypsin assay to monitor protein folding; assay type: biochemical
T3 construct: purchased Sigma (St. Louis, Mo.)
Procedure: To identify the properly folded form from reverse phase purification, the inhibition of chymotrypsin was measured. Chymotrypsin (20 nM) was incubated with refolded BTL.009 reverse phase fractions (0.04 absorbance units at 280 nm) in 100 μl of 50 MM Hepes (pH 7.5), 0.15 M NaCl, 2.0 mM CaCl2, and 0.01% Triton X-100 (buffer A) at 37° C. After 30 minutes, Suc-AAPF-pNa (100 μM final concentration) was added, after which the residual enzymatic formation of pNa was monitored at 410 nm.

[2] = target: T4, human neutrophil elastase (Homo sapiens, UniProt P08246); assay: Determination of equilibrium dissociation constants, neutrophil elastase; assay type: biochemical
T4 construct: purchased Athens Research and Technology, Inc. (Athens, Ga.)
T4 sequence (P08246 30-267): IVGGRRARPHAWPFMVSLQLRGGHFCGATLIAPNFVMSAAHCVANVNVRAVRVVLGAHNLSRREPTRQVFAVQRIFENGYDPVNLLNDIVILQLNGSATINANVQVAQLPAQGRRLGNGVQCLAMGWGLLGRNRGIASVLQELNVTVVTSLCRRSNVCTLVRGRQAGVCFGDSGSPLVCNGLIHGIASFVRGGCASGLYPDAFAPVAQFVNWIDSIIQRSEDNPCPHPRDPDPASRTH
Procedure: (§1) The BTL.009 concentration was determined by amino acid analysis. The concentration of human neutrophil elastase, cathepsin G, and proteinase 3 were based on the manufacturer's specifications. […] Hydrolysis of AMC-conjugated peptides was monitored on a Hitachi model F4500 fluorometer (excitation=370 nm, emission=432 nm) over the first 2 minutes of the reaction. Ki* values were determined from plots of fractional rate versus inhibitor concentration, which were fit by nonlinear regression analysis (Enzifitter™ by Bio soft, Cambridge UK) as described (44). Ki values were obtained by correction for the effect of substrate as described (44).

[3] = target: T5, human neutrophil cathepsin G (Homo sapiens, UniProt P08311); assay: Determination of equilibrium dissociation constants, cathepsin G; assay type: biochemical
T5 construct: purchased Athens Research and Technology, Inc. (Athens, Ga.)
T5 sequence (P08311 21-255): T1 sequence (P08311 21-255)
Procedure: as §1

[4] = target: T6, human neutrophil proteinase 3 (Homo sapiens, UniProt P24158); assay: Determination of equilibrium dissociation constants, proteinase 3; assay type: biochemical
T6 construct: purchased Athens Research and Technology, Inc. (Athens, Ga.)
T6 sequence (P24158 28-256): T2 sequence (P24158 28-256)
Procedure: as §1

trypsin [5] = assay: Inhibitory activity of BTL.009 towards trypsin / trypsin-like proteinases; assay type: biochemical
leukocyte elastase = target: T7, leukocyte elastase (Homo sapiens, UniProt P08246); settings: cited from earlier work
T7 sequence (P08246 30-267): T4 sequence (P08246 30-267)

chymotrypsin = settings: cited from earlier work; for Ki: read-out: Ki, chymotrypsin
platelets = settings: cited from earlier work
thrombin = thrombin (Homo sapiens, UniProt P00734); settings: cited from earlier work
trypsin [6] = target: T8, trypsin (Bos taurus, UniProt P00760); settings: cited from earlier work
T8 construct: gene PRSS1
T8 sequence (P00760 24-246): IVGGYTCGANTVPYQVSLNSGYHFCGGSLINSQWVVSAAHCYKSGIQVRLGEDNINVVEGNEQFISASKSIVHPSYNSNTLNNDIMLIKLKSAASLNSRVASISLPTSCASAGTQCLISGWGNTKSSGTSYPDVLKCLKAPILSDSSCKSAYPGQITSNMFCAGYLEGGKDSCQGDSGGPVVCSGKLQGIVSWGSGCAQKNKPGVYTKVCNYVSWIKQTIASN

[7] = read-out: Ki, leukocyte elastase

Chain of plasma kallikrein (P03952 20-638, species assumed): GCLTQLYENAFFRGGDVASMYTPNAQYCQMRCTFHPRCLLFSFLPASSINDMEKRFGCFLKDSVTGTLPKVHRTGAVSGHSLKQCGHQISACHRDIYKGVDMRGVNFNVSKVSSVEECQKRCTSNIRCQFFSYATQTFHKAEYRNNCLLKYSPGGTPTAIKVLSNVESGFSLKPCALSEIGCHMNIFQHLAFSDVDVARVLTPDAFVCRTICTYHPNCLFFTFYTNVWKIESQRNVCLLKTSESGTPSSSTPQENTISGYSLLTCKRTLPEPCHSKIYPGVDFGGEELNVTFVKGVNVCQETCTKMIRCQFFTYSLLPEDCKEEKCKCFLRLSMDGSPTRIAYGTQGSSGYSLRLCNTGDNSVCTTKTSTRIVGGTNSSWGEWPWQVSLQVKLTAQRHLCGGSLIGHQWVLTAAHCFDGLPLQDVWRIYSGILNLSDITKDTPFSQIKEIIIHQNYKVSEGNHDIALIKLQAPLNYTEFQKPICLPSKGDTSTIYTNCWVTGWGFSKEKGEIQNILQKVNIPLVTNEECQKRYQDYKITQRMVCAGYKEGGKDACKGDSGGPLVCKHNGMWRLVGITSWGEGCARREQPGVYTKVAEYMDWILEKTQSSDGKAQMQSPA

**Q.** Which Ki (plasma kallikrein) does the source give for “APP KD variant (T11D, P13H, M17A, 118H, S19P and F34Y): phage display / consensus mutant APP KD differing at 6 key residues; plasma kallikrein inhibitor” here?
**A.** Its Ki is about 0.015 nM.

**Q.** What about the “increase in binding affinity to plasma kallikrein compared to wild-type APP KD” value (plasma kallikrein) of the same substance?
**A.** Its value is “more than 10,000 fold”.

**Q.** Which “inhibition of neutrophil-induced ECM solubilization” value [1] does the source give for “Alpha 1-proteinase inhibitor: a serpin family serine proteinase inhibitor; major serum inhibitor of elastase and cathepsin G” here?
**A.** The value was “completely or nearly completely inhibit”.

**Q.** And the “inhibition of cathepsin G, in words” value (cathepsin G)?
**A.** The value was “potent inhibitor”.

**Q.** And the “inhibition of cathepsin G, in words” value (cathepsin G; listed as Alpha-1-proteinase)?
**A.** The value was “inhibit”.

**Q.** And the “inhibition of proteinase 3, in words” value (proteinase 3)?
**A.** The value was “inhibit”.

**Q.** What does the source list for “BTL.009: synthetic, refolded peptide corresponding to the EST-derived human Kunitz domain KQDVCEMPKETGPCLAYFLHWWYDKKDNTCSMFVYGGCQGNNNNFQSKANCLNTC (SEQ ID NO:1)”?
**A.** preference for chymotrypsin-like over trypsin-like proteases (Bovine chymotrypsin): inhibit preferentially chymotrypsin-like proteases over trypsin-like proteases; inhibition of leukocyte elastase, in words [2]: strong inhibitor; also recorded: elastase inhibitor; inhibition of cathepsin G, in words [3]: weak inhibitor; inhibition of proteinase 3, in words [4]: moderate inhibitor; inhibitory activity towards trypsin compared with neutrophil neutral serine proteinase (trypsin [5]): significantly greater inhibitory activity towards a neutral serine proteinase secreted by neutrophils than towards trypsin; expected activity towards trypsin-like proteinases (trypsin [5]; expected, not tested): little activity towards all trypsin-like proteinases

**Q.** For “TFPI: Tissue factor pathway inhibitor, another member of the Kunitz family”, which Ki (leukocyte elastase; [7]) is on record?
**A.** The Ki was 400 nM.

**Q.** And the Ki (cathepsin G)?
**A.** The Ki was 100 to 200 nM.

**Q.** What about the Ki (chymotrypsin) of the same substance?
**A.** The Ki was 0.75 nM.

**Q.** Which “inhibition of leukocyte elastase, in words” value (leukocyte elastase) does the source give for Tannin here?
**A.** The value was “specifically inhibits leukocyte elastase in an irreversible manner”.

**Q.** For “Thrombospondin 1: inactivates cathepsin G by binding near the enzyme's active site”, which “inhibition of cathepsin G, in words” value (cathepsin G) is on record?
**A.** The value was “inactivates cathepsin G”.

**Q.** What about the “cathepsin G-mediated platelet aggregation” value (platelets) of the same substance?
**A.** The value was “blocked”.

**Q.** What does the source list for “alpha 1-proteinase inhibitor [Arg358]: alpha 1-proteinase inhibitor P1 variant”?
**A.** inhibition of trypsin-like molecules such as thrombin, in words (thrombin): potent inhibitor; inhibition of leukocyte elastase, in words (leukocyte elastase): not of leukocyte elastase

**Q.** For “alpha-2-macroglobulin: member of the serpin proteinase inhibitor family (as stated)”, which “inhibition of leukocyte elastase, in words” value (leukocyte elastase) is on record?
**A.** The value was “inhibit”.

**Q.** And the “inhibition of cathepsin G, in words” value (cathepsin G)?
**A.** Its value is “inhibit”.

**Q.** And the “inhibition of proteinase 3, in words” value (proteinase 3)?
**A.** The value was “inhibit”.

**Q.** For aprotinin, which “inhibition of leukocyte elastase, in words” value (leukocyte elastase) is on record?
**A.** Its value is “does not inhibit”.

**Q.** What about the Ki (trypsin [6]) of the same substance?
**A.** The Ki was 0.02 nM.

**Q.** What about the Ki (chymotrypsin) of the same substance?
**A.** Its Ki is 1.3 nM.

**Q.** With “double mutant hPSTI variant: hPSTI with P1 lysine to leucine and P'1 isoleucine to glutamate (DSLGREAKCYNELNGCTLEYDPVCGTDGNTYPNECVLCFENRKRQTSILIQKSGPC; UniProt P00995 24-79, looked up, variant K18L I19E)” as the substance, how does the Ki (leukocyte elastase; [7]) read?
**A.** The Ki was 0.037 nM.

**Q.** And the Ki (chymotrypsin)?
**A.** The Ki was 0.024 nM.

**Q.** Which Ki (leukocyte elastase; read-out: Ki, elastase) does the source give for “elafin: member of the mucous proteinase inhibitor family (AQEPVKGPVSTKPGSCPIILIRCAMLNPPNRCLKDTDCPGIKKCCEGSCGMACFVPQ; Elafin; UniProt P19957 61-117, looked up)” here?
**A.** The Ki was 0.6 nM.

**Q.** What about the “inhibition of cathepsin G, in words” value (cathepsin G) of the same substance?
**A.** The value was “not”.

**Q.** And the “inhibition of proteinase 3, in words” value (proteinase 3)?
**A.** The value was “not proteinase 3”.

**Q.** Which results are given for “hPSTI: a member of the Kazal serine proteinase family (DSLGREAKCYNELNGCTKIYDPVCGTDGNTYPNECVLCFENRKRQTSILIQKSGPC; UniProt P00995 24-79, looked up)”?
**A.** inhibition of leukocyte elastase, in words (leukocyte elastase): completely inactive; inhibition of trypsin, in words (trypsin [6]): potent inhibitor; inhibition of chymotrypsin, in words (chymotrypsin): completely inactive

**Q.** Which results are given for “single mutant hPSTI variant: hPSTI with P1 residue lysine substituted with leucine (DSLGREAKCYNELNGCTLIYDPVCGTDGNTYPNECVLCFENRKRQTSILIQKSGPC; UniProt P00995 24-79, looked up, variant K18L)”?
**A.** Ki (leukocyte elastase; [7]): 0.025 nM; inhibition of trypsin, in words (trypsin [6]): inactive; Ki (chymotrypsin): 8 nM
